Where a chain is given by its changes, count along the chain named.
B1: MH4 (antibody, IgG4, V domains shown)
VH: QVQLVQSGAEVKKPGASVKVSCKASGYTFTSYTMHWVRQAPGQGLEWMGWINPSGGSTSYAQKFQGRVTMTRDTSTSTVYMELSSLRSEDTAVYYCARQEITTEFDYWGQGTLVTVSS
VL: EIVLTQSPGTLSLSPGERATLSCRASQSVSSYANSYLHWYQQKPGQAPRLLIYRGSTRESGIPDRFSGSGSGTDFTLTISRLEPEDFAVYYCQQSKSEPLTFGGGTKVEIK
B2: 04F09 (antibody, IgG4, V domains shown)
VH: B1 VH with T28I, T33S, G55N, S57L, T58A, S59N, Y107I
VL: B1 VL with S30E, N34Q, E98D
B3: 08G07 (antibody, human IgG4, V domains shown)
VH: B1 VH with S57L, T58A, S59N, Q99S, E104D
VL: B1 VL with S30D
B4: 09E04 (antibody, IgG4, V domains shown)
VH: B1 VH with T28I, S54N
VL: B1 VL with S30E, S95Y, K96G
B5: MH7 (antibody, human IgG4, V domains shown)
VH: B1 VH with W50I
VL: B1 VL
B6: MH7-1 (antibody, human IgG4, V domains shown)
VH: B1 VH with W50I
VL: B1 VL with S60T
B7: MH7-3 (antibody, human IgG4, V domains shown)
VH: B1 VH with W50I
VL: B1 VL with N34Q, S60T, S97E, E98S
B8: MH10 (antibody, IgG4, V domains shown)
VH: B1 VH with T33A
VL: B1 VL
B9: MH12 (antibody, IgG4, V domains shown)
VH: B1 VH with T33A
VL: B1 VL with N34Q, S60T, S95Y, K96G, E98S

What was measured:
[1] = molecular target: T1, human C-MET on stably transfected CHO-K1 cells (human, UniProt P08581 25-1390); assay: flow cytometry, C-MET CHO-K1 cells
T1 construct: also called hucMET; human C-MET+ CHO-K1 cells
T1 sequence (P08581 25-1390 limits assumed): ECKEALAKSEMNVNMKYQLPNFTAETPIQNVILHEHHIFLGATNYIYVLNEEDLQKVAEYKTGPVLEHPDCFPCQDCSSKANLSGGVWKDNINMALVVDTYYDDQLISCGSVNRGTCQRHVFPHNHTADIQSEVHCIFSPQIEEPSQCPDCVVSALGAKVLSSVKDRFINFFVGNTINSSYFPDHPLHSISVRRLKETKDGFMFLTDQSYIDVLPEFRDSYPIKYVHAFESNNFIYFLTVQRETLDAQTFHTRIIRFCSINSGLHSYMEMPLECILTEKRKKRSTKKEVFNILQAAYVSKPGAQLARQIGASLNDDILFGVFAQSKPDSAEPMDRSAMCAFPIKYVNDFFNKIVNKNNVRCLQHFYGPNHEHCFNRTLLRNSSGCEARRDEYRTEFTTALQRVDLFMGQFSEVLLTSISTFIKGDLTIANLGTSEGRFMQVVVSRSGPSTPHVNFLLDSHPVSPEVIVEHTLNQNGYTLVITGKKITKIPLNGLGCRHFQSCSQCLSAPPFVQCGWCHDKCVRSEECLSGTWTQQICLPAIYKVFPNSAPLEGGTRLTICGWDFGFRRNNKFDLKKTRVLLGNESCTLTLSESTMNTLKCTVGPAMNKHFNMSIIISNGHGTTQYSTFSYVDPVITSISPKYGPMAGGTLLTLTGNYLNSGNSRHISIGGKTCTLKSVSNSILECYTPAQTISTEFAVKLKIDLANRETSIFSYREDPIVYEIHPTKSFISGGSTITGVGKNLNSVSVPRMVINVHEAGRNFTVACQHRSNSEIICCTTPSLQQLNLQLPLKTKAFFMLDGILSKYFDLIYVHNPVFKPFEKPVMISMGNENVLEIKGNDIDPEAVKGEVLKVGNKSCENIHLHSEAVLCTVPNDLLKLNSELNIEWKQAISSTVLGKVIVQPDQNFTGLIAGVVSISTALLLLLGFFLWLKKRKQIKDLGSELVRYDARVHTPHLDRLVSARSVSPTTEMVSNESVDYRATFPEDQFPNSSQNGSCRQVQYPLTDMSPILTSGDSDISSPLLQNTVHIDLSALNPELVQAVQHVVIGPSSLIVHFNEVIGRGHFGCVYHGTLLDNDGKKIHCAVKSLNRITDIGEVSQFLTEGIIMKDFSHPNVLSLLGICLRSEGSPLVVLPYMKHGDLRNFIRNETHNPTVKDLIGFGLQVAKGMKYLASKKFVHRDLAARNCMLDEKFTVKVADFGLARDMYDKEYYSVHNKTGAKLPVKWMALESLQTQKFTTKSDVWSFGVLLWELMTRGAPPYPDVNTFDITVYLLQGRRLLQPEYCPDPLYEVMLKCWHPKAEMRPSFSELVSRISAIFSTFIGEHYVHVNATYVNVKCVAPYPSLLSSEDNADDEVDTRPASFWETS
Procedure: (§1) Purified IgGs were tested in FACs for binding to human and cyno C-MET expressed on CHO-K1 stable cell lines and CHO-K1 wild-type cells. The IgG samples were titrated in three-fold serial dilutions starting at 500 nM to 0.08 nM. Binding of IgGs was detected with a mouse anti-human IgG conjugated to FITC. Results were analyzed by examining the Mean Fluorescence Intensity (MFI) of 10000 cells per sample in the BL-1 channel detector of a flow cytometer (Attune™ NxT Acoustic Focusing Cytometer, Invitrogen/ThermoFisher Scientific).
(§2) Antibodies to C-MET were analysed for concentration-dependent binding at the cell surface via flow cytometry. CHO-K1 cells were stably transfected with either human or cyno C-MET full-length cDNAs. Anti-C-MET IgGs and an isotype control IgG4(S228P) were then all tested in IgG4(S228P) format, over a concentration range of 500-0.08 nM for binding to human (FIG. 5A) and cyno (FIG. 5B) CHO-K1 cells.

[2] = molecular target: T2, cynomolgus monkey C-MET on stably transfected CHO-K1 cells (cynomolgus monkey, UniProt A0M8R7 25-1381 (Papio anubis entry)); assay: flow cytometry, C-MET CHO-K1 cells
T2 construct: also called cycMET; cyno C-MET+ CHO-K1 cells
T2 sequence (A0M8R7 25-1381 S170N/I621T limits assumed): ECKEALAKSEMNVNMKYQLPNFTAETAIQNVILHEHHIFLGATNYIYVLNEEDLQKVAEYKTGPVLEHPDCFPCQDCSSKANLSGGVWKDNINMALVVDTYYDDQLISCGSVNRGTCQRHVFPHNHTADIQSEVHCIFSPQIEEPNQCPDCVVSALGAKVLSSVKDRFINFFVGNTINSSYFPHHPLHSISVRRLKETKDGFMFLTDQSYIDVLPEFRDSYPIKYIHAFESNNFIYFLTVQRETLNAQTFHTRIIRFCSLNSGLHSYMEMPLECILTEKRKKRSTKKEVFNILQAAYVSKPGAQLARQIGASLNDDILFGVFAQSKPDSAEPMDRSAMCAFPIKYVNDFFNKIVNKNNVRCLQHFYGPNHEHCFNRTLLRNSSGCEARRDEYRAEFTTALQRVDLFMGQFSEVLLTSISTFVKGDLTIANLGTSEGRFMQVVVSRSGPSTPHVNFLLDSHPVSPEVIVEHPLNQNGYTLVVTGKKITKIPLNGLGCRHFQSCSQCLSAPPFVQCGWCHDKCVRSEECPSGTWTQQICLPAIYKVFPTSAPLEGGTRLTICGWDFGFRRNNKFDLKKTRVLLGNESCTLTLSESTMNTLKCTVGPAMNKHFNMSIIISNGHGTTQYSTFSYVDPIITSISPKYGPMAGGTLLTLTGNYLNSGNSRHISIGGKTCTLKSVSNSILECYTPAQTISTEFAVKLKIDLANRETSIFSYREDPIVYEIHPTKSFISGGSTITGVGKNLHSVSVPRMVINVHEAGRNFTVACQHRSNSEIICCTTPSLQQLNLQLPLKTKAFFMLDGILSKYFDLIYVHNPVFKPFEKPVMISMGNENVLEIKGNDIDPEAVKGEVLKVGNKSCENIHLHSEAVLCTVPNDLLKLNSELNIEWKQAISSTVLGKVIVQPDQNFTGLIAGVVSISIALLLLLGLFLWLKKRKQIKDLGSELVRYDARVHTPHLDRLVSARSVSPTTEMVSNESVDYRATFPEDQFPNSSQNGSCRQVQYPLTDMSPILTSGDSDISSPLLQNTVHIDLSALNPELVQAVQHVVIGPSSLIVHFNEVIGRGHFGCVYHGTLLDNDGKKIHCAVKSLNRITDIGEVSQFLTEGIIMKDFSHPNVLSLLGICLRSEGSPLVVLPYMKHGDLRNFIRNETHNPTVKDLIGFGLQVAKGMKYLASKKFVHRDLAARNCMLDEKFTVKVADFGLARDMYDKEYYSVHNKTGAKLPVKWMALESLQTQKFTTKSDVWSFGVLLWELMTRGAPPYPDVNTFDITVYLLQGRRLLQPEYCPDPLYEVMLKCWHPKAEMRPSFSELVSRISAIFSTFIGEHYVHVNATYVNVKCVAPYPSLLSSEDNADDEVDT
Procedure: as §1, §2

[3] = molecular target: T1, human C-MET on stably transfected …; assay: flow cytometry, C-MET CHO-K1 cells; remark: listed apart in the source
Procedure: as §1

[4] = molecular target: T2, cynomolgus monkey C-MET on stably …; assay: flow cytometry, C-MET CHO-K1 cells; remark: listed apart in the source
Procedure: as §1

[5] = molecular target: T3, cynomolgus monkey C-MET His tag, monomeric (cynomolgus monkey, UniProt A0M8R7 25-932 (Papio anubis entry)); assay: SPR Biacore, monomeric cyno against monomeric human C-MET
T3 construct: also called monomeric cyno C-MET; cyCMET
T3 sequence (A0M8R7 25-932 S170N/I621T): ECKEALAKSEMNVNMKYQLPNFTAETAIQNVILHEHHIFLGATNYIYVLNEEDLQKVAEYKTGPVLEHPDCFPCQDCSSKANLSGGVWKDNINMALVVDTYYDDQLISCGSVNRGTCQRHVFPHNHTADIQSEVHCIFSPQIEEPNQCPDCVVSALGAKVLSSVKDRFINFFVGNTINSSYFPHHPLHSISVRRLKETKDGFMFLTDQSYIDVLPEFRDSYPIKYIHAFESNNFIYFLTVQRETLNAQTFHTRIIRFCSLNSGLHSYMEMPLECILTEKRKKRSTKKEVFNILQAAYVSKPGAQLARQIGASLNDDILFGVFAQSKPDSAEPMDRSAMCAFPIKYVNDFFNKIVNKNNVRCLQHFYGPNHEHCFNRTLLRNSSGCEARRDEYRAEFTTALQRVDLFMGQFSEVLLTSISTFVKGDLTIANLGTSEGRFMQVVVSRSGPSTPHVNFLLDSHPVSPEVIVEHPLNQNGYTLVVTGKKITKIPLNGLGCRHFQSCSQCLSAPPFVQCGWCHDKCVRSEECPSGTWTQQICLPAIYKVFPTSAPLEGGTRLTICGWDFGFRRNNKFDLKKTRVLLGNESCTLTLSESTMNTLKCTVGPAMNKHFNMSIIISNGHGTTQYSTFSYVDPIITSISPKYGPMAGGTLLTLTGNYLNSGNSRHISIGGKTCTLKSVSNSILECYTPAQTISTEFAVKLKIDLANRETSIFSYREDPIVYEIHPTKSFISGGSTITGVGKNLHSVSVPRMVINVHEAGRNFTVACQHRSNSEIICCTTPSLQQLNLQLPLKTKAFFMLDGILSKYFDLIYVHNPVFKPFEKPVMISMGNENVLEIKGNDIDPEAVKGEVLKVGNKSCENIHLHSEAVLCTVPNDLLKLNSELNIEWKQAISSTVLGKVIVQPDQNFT
Procedure: (§3) Affinity (KD) of purified IgGs was determined via SPR with antigen in-solution on a Biacore® 3000 (GE). A mouse anti-human antibody (CH1 specific) was immobilized on a CM5 Sensor Chip to a level of 2000 RU in acetate buffer at pH 4.5 using amine coupling following the Wizard instructions for two channels. One channel was used for background signal correction. The standard running buffer HBS-EP pH 7.4 was used. Regeneration was performed with a single injection of 10 μl of 10 mM Glycine at pH 1.5 at 20 μl/minute. IgG samples were injected for 2 minutes at 50 nM at 30 μl/min followed by and off-rate of 60 seconds. The monomeric antigen (human C-MET His tagged or cynomolgus monkey C-MET His tag) was injected in two fold serial dilutions from 100 nM down to 6 nM, for 2 minutes at 30 μl/min followed by an off-rate of 300 seconds. The obtained sensorgrams were analysed using the Biacore® 3000 evaluation (BIAevaluation) software. The KD was calculated by simultaneous fitting of the association and dissociation phases to a 1:1 Langmuir binding model.

[6] = molecular target: T4, human C-MET His tagged, monomeric (human, UniProt P08581 25-932); assay: SPR Biacore, IgG captured, monomeric C-MET-His analyte
T4 construct: also called monomeric human C-MET; biotinylated human C-MET-His
T4 sequence (P08581 25-932): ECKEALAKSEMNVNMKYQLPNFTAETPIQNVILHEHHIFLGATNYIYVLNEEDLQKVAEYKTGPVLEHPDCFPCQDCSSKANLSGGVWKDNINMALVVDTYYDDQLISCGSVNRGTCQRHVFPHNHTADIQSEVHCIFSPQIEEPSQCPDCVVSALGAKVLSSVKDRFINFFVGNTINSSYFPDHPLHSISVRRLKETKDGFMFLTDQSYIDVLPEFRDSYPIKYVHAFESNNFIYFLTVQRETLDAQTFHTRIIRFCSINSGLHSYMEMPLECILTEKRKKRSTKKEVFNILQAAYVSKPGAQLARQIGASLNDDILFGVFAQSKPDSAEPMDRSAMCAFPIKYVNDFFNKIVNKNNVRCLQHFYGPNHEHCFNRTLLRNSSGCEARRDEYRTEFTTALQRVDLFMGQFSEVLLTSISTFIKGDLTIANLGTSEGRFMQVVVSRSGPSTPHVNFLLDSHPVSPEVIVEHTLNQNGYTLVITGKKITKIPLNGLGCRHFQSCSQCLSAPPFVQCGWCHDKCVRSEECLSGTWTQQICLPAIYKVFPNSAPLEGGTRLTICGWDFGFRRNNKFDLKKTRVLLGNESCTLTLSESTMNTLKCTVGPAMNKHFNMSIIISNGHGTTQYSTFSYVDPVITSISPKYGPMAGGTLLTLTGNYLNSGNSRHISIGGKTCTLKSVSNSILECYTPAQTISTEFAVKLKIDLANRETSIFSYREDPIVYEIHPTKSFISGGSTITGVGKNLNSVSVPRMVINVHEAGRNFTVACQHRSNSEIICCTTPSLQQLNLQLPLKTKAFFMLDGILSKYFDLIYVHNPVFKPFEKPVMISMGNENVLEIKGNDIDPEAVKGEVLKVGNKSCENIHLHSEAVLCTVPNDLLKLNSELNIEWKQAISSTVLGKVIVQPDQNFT
Procedure: as §3

[7] = molecular target: T3, cynomolgus monkey C-MET His tag, …; assay: as above
Procedure: as §3

Insulin = molecular target: T5, Insulin; assay: polyreactivity ELISA on insulin; set-up: scale not given here
T5 construct: Coated surface of the polyreactivity (development risk) ELISA
T5 sequence (P01308 25-54, chain 1 of 2): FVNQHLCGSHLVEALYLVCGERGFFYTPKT
T5 sequence (P01308 90-110, chain 2 of 2): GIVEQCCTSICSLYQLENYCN

[8] = molecular target: T4, human C-MET His tagged, monomeric; assay: Alphascreen epitope competition in solution: varied IgG4(S228P) against 224G11 IgG4(S228P) binding to biotinylated human C-MET, CPS (crosstalk-corrected)
Procedure: FIG. 7. Epitope competition analysis of IgG4(S228P) proteins in Alphascreen. Anti-Humanized h224G11, Grafted clone (Graft) and clones 08G07, MH7, MH7-1, MH7-2, MH7-3 in human IgG4(S228P) format were titrated (in nM) in an epitope competition assay using Alphascreen technology. In this assay, library-derived and designer IgGs were analysed for their retention of the parental 224G11 epitope by competing for 224G11 IgG4(S228P) binding to human C-MET protein, in solution.
The AlphaScreen assay (Perkin Elmer) was performed in a 25 μl final volume in 384-well white microtiter plates (Greiner). The reaction buffer contained 1×PBS pH 7.3 (Oxoid, Cat. nr. BR0014G) and 0.05% (v/v) Tween® 20 (Sigma, Cat. nr. P9416). Purified IgG samples were titrated in three fold serial dilutions starting at 50 nM final concentration and incubated with biotinylated human C-MET-His (Acrobiosystems) at 1 nM final concentration for 20 minutes at room temperature. The parental IgG and the anti-human IgG4(S228P) Acceptor beads at were added and the mix was incubated for 1 hour at room temperature. Followed by addition of the Streptavidin Donor beads and incubation for 30 minutes at room temperature. The emission of light was measured in the EnVision multilabel plate reader (Perkin Elmer) and analysed using the EnVision manager software. Values were reported as Counts Per Second (CPS) and corrected for crosstalk. […]

[9] = molecular target: T4, human C-MET His tagged, monomeric; assay: SPR Biacore
Procedure: as §3

| Binder | maximum MFI, fold over Isotype IgG4 background [1] | maximum MFI, fold over Isotype IgG4 background [2] | EC50 [3] | EC50 [4] | cyno C-MET affinity, fold of the human C-MET affinity [5] | Kd [6] | koff [6] | kon [6] | Kd [7] | koff [7] | kon [7] | reactivity score (Insulin) | IC50 (read off the curve) [8] | fold reduction in binding affinity against MH4 [9] |
| --- | --- | --- | --- | --- | --- | --- | --- | --- | --- | --- | --- | --- | --- | --- |
| B1 | > 10 fold | > 10 fold | 1.72 nM | 0.48 nM | ≤ 2 fold | 0.28 nM | 2.5e-05 s⁻¹ | 87000 M⁻¹ s⁻¹ | 0.19 nM | 4.9e-05 s⁻¹ | 260000 M⁻¹ s⁻¹ | – | – | – |
| B2 | > 10 fold | > 10 fold | 12.4 nM | 0.64 nM | ≤ 2 fold | 0.13 nM | 1.8e-05 s⁻¹ | 140000 M⁻¹ s⁻¹ | 0.19 nM | 5.6e-05 s⁻¹ | 290000 M⁻¹ s⁻¹ | – | – | – |
| B3 | > 10 fold | > 10 fold | 4.19 nM | 0.68 nM | ≤ 2 fold | 0.12 nM | 7.54e-06 s⁻¹ | 63400 M⁻¹ s⁻¹ | 0.24 nM | 2.4e-05 s⁻¹ | 100000 M⁻¹ s⁻¹ | 1 | – | – |
| B4 | > 10 fold | > 10 fold | 2.9 nM | 1.11 nM | ≤ 2 fold | 0.18 nM | 1.6e-05 s⁻¹ | 85000 M⁻¹ s⁻¹ | 0.39 nM | 6.4e-05 s⁻¹ | 170000 M⁻¹ s⁻¹ | – | – | – |
| B5 | > 10 fold | > 10 fold | 1.14 nM | 0.54 nM | ≤ 2 fold | 0.3 nM | 2.9e-05 s⁻¹ | 98000 M⁻¹ s⁻¹ | 0.19 nM | 5.2e-05 s⁻¹ | 270000 M⁻¹ s⁻¹ | 1 | – | – |
| B6 | > 10 fold | > 10 fold | – | – | – | 1.54 nM | 0.000151 s⁻¹ | 97900 M⁻¹ s⁻¹ | 1.1 nM | 0.000198 s⁻¹ | 181000 M⁻¹ s⁻¹ | 1 | – | – |
| B7 | > 10 fold | > 10 fold | – | – | – | 1.31 nM | 0.000123 s⁻¹ | 94400 M⁻¹ s⁻¹ | 1.03 nM | 0.000174 s⁻¹ | 168000 M⁻¹ s⁻¹ | 1 | ~0.2 nM | – |
| B8 | > 10 fold | > 10 fold | 2.14 nM | 0.46 nM | – | 0.63 nM | 4.4e-05 s⁻¹ | 71000 M⁻¹ s⁻¹ | 0.2 nM | 3.6e-05 s⁻¹ | 180000 M⁻¹ s⁻¹ | – | – | ~2 fold |
| B9 | > 10 fold | > 10 fold | 1.25 nM | 0.51 nM | – | 6.5 nM | 0.00037 s⁻¹ | 56000 M⁻¹ s⁻¹ | 4 nM | 0.00043 s⁻¹ | 110000 M⁻¹ s⁻¹ | – | – | – |

— patent US20260042850A1 (LOCKBODY THERAPEUTICS, published 2026)
